From the DeepSol protein solubility set

Test: soluble on expression in E. coli; label from the status in PepcDB or PDB records

Soluble on expression in E. coli, not soluble:
MGSDKIHHHHHHMLFWSTVDLGLTFMATSSTLAFDSSNRIDDVKIVIKGYEFGPAVPKLVVKLNQKISKVSTKDLKVETAGVKRQIKKVYLSDKNSQKSTKKEGDYLTIQMPVTYNVDDSSKNASPFVYNTDVFQNQWVKTYPVSIKGLTVSYKGKSTNNLTSKSDAINKRVSPDSEVFTNRGSFSGNYTNPLTKKNEKVDLQYAAYEPKKLQSGNKNPLIIWLHGQGEGGTDPDITLLGNKVTALIKEDIQNHFKSGNQKGTYVLTVQAPTYWMDEGDGSNGQGAGTSRYTEVLMDAIKKYVAKIT
MGSDKIHHHHHHMLGENIYLQRTQIGMTQENLSDYLHLTKTTISKWENNQAKPDIDYLILMANLFDISLDDLVGYQKTLSDDQRNQLIKDLKIKANVLSERDFFQEVKELSKQFPNDFKTLLIMINMVLSNLTNLNDSEMKEWSLSTLNKIISKTVVESDLQTAIMFKTVVLFHNLEYDEVINLYQNSPYKLGEELLLANSFFAKVDVYRAKQVLQVEIYQQILLVCEYLLSLSTFEVEENKGDIFERLEHMIEAFQLNSLHPNTVIKCYYSLACHYSKSDDDKALGYLKQCFKSLKQLLQRFELHGDTFFYTIDDWLETIPTGIAPPTSQLQVIERVEDLFQNSQFKELSGHKEFQQMIQKLNDLKKDY
MGSDKIHHHHHHMLHFKHSSVINATPEVVWKFHERPDILQLLNPPWQPVQVVRREGGLNVGAITEFRLFLGPLPLTWLARHTECDKYRLFTDEQISGPFESWVHRHEFEPEAGKTRLTDAISFSMPGGETVEFVSGWLVQVQLEAMFRYRHYVTKRECESQ
MGSDKIHHHHHHMLHIVNNLRDSFTPGTPHQAALAQIFPQDSEKQTMDKRDLSAIFRERLKLLLTRSDLNQSAFASAVGIDRSALSQLMSGASTRLPRAETLLNIAAEFKVSLDWLLGLSQDEGVTGEIRESLEIEEAPDGFDRTLLAKWFAEAAGTKIRYVPAGIPDLLRTRALVDYEANITNRSRLAQASETQYRIEYNRRPETDMEVCMPRHTLEIFARGLGVWDRFPEADRRQQLAHMATLLDDLYPTFRLFLYDGRMRYSIPLTIFGPYRAAIYVGDMYVVLNATQPVQALTQHFDNLIRAADVNPHEAAAFARNLAGMSFPSGSV
MGSDKIHHHHHHMLHRTCIQFHKFGNPKDVLQVEYKNIEPLKENEVLVRMLVRPINPSDLIPITGAYAHRIPLPNIPGYEGVGIVEDVGAFVSRDLIGKRVLPLRGEGTWQEYVKTSPDFVVPIPDSINDFTAAQMYINPLTAWVTCTETLNLQRNDVLLVNACGSAIGHLFAQLSQILNFRLIAVTRNNKHTEELLRLGAAYVIDTSTAPLYETVMTLTNGIGADAAIDSIGGPDGNELAFSLRPNGHFLTIGLLSGVQVNWAEIVTKAKVHANIFHLRHWNKEASSYKWQETFRHLIRLVENEQLRFMKVHSTYDLADVKAAVDVVQSAEKTKG
MGSDKIHHHHHHMLIAQVTDIHLGFEPDSPDEFNRQRLDRVLAELAAMDPRPDLLLATGDLIDRGDRESYERLRDAFSNLPFPVHYALGNHDERETFSAVFPEAAFTDGFLQYIVDAGPLRIIVLDTLEEGRHGGAFCDVRARWLKARLDEAPDTRTLIVQHHPPVEVGIAWMNTDPAEPWVERLGQCLRGRTNVVGVVCGHIHRAITTAWEGTVVATCPSTAPQVALDLRPIDPDVPDQRNLIIADPPGYALHWFNGRELITHWDTAEDHQVLARYDANLQGMIQHMLAERPGAQAAE
MGSDKIHHHHHHMLITCSESGIDFGKSLSTYIHEYLGLNRNCRLFEVKQACYSGTAGFQMAVNFILSQTSPGAKALVIASDISRFLIAEGGDALSEDWSYAEPSAGAGAVAVLVGENPEVFQIDPGANGYYGYEVMDTCRPIPDSEAGDSDLSLMSYLDCCEQTFLEYQKRVPGANYQDTFQYLAYHTPFGGMVKGAHRTMMRKVAKVKTSGIETDFLTRVKPGLNYCQRVGNIMGAALFLALASTIDQGRFDTPKRIGCFSYGSGCCSEFYSGITTPQGQERQRTFGIEKHLDRRYQLSMEEYELLFKGSGMVRFGTRNVKLDFEMIPGIMQSTQEKPRLFLEEISEFHRKYRWIS
MGSDKIHHHHHHMLKKQLFADRLLAQMPSLRALRCFVTAARYESFTQAAEVLCVTQAAVSRQIKELEDSLDVALFERTGRHIALTDAGRILYNASYLSIMNIAEAAEAVRRTDKHALMICVSHTFSALWLSSRLPAFRERFPDIRLNLIVTEHFMELDGLIEPDVIITKNPPREPEFDVEPMFHDIVYPVCSPAFHERHFHGRSLKPLDLLSRPTLNLSMLGRAQVCEHVDWRVWRNWFQQGDGTDTLTENKYLESNDYRLLVAQAEAGEGTLLGWHHLVHRQIDQGILMRPVQDVLVFRDRHHYLITHRNAQPRPEYQQFRQWLNDEVGVMMRGWLDAGVEGEQ
MGSDKIHHHHHHMLKNDQLDQWDRDNFFHPSTHLAQHARGESANRVIKTASGVFIEDRDGTKLLDAFAGLYCVNVGYGRQEIAEAIADQARELAYYHSYVGHGTEASITLAKMILDRAPKNMSKVYFGLGGSDANETNVKLIWYYNNILGRPEKKKIISRWRGYHGSGLVTGSLTGLELFHKKFDLPVEQVIHTEAPYYFRREDLNQTEEQFVAHCVAELEALIEREGADTIAAFIGEPILGTGGIVPPPAGYWEAIQTVLNKHDILLVADEVVTGFGRLGTMFGSDHYGLEPDIITIAKGLTSAYAPLSGSIVSDKVWKVLEQGTDENGPIGHGWTYSAHPIGAAAGVANLKLLDELNLVSNAGEVGAYLNATMAEALSQHANVGDVRGEGLLCAVEFVKDRDSRTFFDAADKIGPQISAKLLEQDKIIARAMPQGDILGFAPPFCLTRAEADQVVEGTLRAVKAVLG
MGSDKIHHHHHHMLKRLLDYNDGEEMDIVVLIKNSQLRRNKKDKLFLAMQFGDGSGEIRGNYWDASHQDAATFSTGTIVELNGKREEYQGRPQIRIYSLRVVGPQEGYSLDEFIKSAPETTNDMKGEIDDFVKQIQNRTWRSIVEYLLKKWDKRFFDYPAGKSNHHALRGGLAYHTLAMLKDARGLADNYEQINRSLLYAGCILHDMGKVQELTGPAATQYTIEGNLVGHLVLIDEQIMLAAQDLKIDLESEDLLLLRHMVLSHHGKFEYGSPKLPALLEAEILHRIDDLDAMVYAVTNALQHTGKGTFTEPLQSQDGKRYYRPKNDPELDQAKNLE
MGSDKIHHHHHHMLKTKTALTLSDKNYYSTEADWHYMSVSQYKNFNECEAATIARLKKIWLPCSDPKALLVGNYVHSYFESSKIHDLFKKENKDKMFSSRKPYGLLKDFQIAEQMIQRLKEEPAFMNLYKGEKEVIVTGQIENVNWKGKIDCLNLEDGYFVDIKTTKDIHERKWNDSYAERCTFIENYGYVLQMAVYKELLSQKYNREFVPIIAAVSKQTPSEVKLITLDEDKMHFEMIQLKENIEHIIKVKNGEEKPTLCGRCEYCRGQQRITHFTNMNDL
MGSDKIHHHHHHMLLHFVPINVFRETPQVSFFDAGVNGSNGADVVIHHKNAISPPDDGNFEQYYIHNHQVDHNLVIEGSRKFTLINPKWDEPHHVIFLNRAMGALQIPIGTYHRSESGKEGSIVLNQATRDDMFDQRKEFSPVSLRSNKQLRKARQAHPVYWIWEEERIKRVKLDCKGYSKNIKLEPLKTAH
MGSDKIHHHHHHMLLIDTHAHVLSPDRTTFPRDYGLDMAWARGDLSAQQLVAAMDESSISKTLLIQAYSAYRYDNSYLESVIGEFPDRFAGVCMVDPLARDVSDRLTSLIVDRKFAGTRIVIVQPEPRLDDPAMAPFYETCAELRTPLCVLTIPPKLKELEVPLSQWPSLQVVVEHLGLIHTASGDSVSKERPLLDLARFPNCILKFSTISLRVAAAFEGGAQGQFERLIDAFGAQRLMWGSDYPSTPEGGIPGLVNEMHQALDFLPHHDLALLSGEAACRIWSTLRPVSSRGLA
MGSDKIHHHHHHMLMELTTTSHALKEWAVAVNALESGKTIMLLRKGGIHERNGNFQVAHKQILLYPTYEHQQAFMLKPEYANRVYPVTSGWHPETVRIGSWAEITDILPISDEFLVNALLPFHIWNEHFISDRLKWKPRQPLYILLLRTYKLTQDQEIPYHPKYGGCKSWIDLDQSINLQETTPALSDFAYTQLVQTIRGIVGDKMARKIDMLNYNSTFS
